These results are taken from paper PMC12663309 (2025).

This experiment addresses human NEK7 recombinant protein (HY-P75935, MCE) (human, UniProt Q8TDX7 1-302, RED-NHS dye label (in the MST only)). In words: MST.

Chain of human NEK7 recombinant protein (HY-P75935, MCE) (Q8TDX7 whole entry, one chain of several): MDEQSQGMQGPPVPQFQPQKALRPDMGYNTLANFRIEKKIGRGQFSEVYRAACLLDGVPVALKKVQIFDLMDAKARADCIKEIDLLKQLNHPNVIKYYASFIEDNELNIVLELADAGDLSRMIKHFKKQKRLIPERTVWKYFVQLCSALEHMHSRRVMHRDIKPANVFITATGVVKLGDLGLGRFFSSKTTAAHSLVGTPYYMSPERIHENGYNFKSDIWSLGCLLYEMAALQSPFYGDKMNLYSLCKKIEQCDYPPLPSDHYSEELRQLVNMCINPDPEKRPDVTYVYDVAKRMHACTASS

B1: human SDHB recombinant protein (Ag29868, Proteintech) (natural protein)
chain: AQTAAATAPRIKKFAIYRWDPDKAGDKPHMQTYEVDLNKCGPMVLDALIKIKNEVDSTLTFRRSCREGICGSCAMNINGGNTLACTRRIDTNLNKVSKIYPLPHMYVIKDLVPDLSNFYAQYKSIEPYLKKKDESQEGKQQYLQSIEEREKLDGLYECILCACCSTSCPSYWWNGDKYLGPAVLMQAYRWMIDSRDDFTEERLAKLQDPFSLYRCHTIMNCTRTCPKGLNPGKAIAEIKKMMATYKEKKASV
Regarding B1, the Kd was 19.5 µM.

In general, Kd refers to the equilibrium constant for the complex coming apart.
